Patent US20240294650A1 (Alector, published 2024)

Experiments:
[1] = molecular target: T1, Full Axl (ECD domain of human Axl) (human, UniProt P30530 26-451); experiment: SPR (data not shown)
T1 construct: also called human Axl ECD
T1 sequence: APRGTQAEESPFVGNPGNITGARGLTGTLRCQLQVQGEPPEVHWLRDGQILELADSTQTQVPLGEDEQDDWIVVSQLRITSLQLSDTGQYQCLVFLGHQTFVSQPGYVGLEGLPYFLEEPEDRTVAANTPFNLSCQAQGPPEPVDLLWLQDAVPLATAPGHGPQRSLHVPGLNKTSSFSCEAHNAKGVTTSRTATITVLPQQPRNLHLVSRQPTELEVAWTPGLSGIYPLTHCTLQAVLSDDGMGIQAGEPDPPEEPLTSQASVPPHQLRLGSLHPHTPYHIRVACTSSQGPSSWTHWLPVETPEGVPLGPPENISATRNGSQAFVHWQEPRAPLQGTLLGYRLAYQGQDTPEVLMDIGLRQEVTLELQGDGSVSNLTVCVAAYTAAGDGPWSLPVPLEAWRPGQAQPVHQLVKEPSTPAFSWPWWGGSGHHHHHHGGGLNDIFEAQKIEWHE
In short: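 Read-out is loss of binding to MerTK deletion or Axl-swap constructs, or gain of binding to Axl constructs carrying MerTK domains, mapped to human MerTK domains. Antibodies sat on the chip by amine coupling; diluted supernatants flowed over them.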

[2] = molecular target: T2, Recombinant human MerTK-human Fc Chimera protein (human, UniProt Q12866 26-499, limits assumed); experiment: blocking ELISA, ProS-His on MerTK-Fc, Ab 66.6 nM, isotype=100%
T2 construct: bought construct; also called MerTK-Fc (R&D systems, Cat #391-MR-100)
T2 sequence: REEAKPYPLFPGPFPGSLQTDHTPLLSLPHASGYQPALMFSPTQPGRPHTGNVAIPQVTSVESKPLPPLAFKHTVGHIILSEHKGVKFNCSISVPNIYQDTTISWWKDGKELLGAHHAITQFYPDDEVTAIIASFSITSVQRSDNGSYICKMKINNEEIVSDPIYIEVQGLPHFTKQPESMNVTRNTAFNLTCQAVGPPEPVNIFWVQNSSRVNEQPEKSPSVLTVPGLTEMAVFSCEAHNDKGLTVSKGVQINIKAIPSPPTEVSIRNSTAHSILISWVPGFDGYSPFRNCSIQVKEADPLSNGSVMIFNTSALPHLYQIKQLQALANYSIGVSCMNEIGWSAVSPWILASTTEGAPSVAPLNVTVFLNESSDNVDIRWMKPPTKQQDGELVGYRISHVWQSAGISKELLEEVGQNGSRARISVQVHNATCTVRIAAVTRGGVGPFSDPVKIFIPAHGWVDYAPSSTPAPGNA
Experimental: Briefly, rabbit anti-human IgG antibody (Jackson ImmunoResearch, Cat #309-005-008) was coated at 2 μg/ml onto high-protein binding plates at 4° C. overnight. After washing with 0.05% Tween20 in PBS three times, 5% BSA in PBS was added for 1 hour. Recombinant human MerTK-human Fe Chimera protein (R&D systems, Cat #391-MR-100) was added at 2 μg/ml for 1 hour and plates were washed before the addition of 40 μl of anti-MerTK hybridoma supernatants and 40 μl of His tag-conjugated recombinant Gas6 (R&D systems, Cat #885-GSB-050) at 3 μg/ml or His tag-conjugated recombinant ProS (R&D systems, Cat #9489-PS-100) at 20 μg/ml. After a further incubation for 1 hour, plates were washed and incubated for 1 hour with HRP-conjugated anti-6×His tagged antibody (Abcam, Cambridge, MA, Cat #ab1187). Plates were then washed and an HRP substrate, TMB, was added to develop the plates. The reaction was stopped by adding 50 μl 2N H₂SO₄ and the OD was measured using a spectrophotometer (BioTek).
Anti-MerTK antibodies were titrated to a final concentration from 66.6 nM to 4 pM and tested against anti-human MerTK antibody M6 (disclosed in WO2016/106221) or isotype control antibody.

binding result [1]: no binding | Percent ProS ligand binding [2]: 72.8%
B1: MTK-221 (antibody, human IgG1, V domains shown)
VH: QVTLKESGPGMLQSSQTLSLTCSFSGFSLSTSGMGVSWIRQPSGKGLEWLAHIYWDDDKRYNTSLQSRLTISKDTSRNQVFLKITSVDTADTATYFCGRLGAYSAFPYYFDYWGQGTTLTVSS
VL: DIQMTQSPSSLSASLGGKVTITCKASQDIHKHIAWYQHKPGKGPRLLIHYTSTLQPGIPSRFSGSGSGRDYSFSISNLEPEDLATYYCLQYDNLWTFGGGTKLEIK
